Experimental data: the Immune Epitope Database (IEDB)
pKd: −log10 of the molar value.

Columns and labels:
Assay in all cases: IEDB peptide-MHC binding, purified MHC/competitive/radioactivity; filed as Kd, often an IC50 or EC50 that approximates it; ≥ and ≤ were set here for values at or beyond the usual limits of such assays
[1] = biological target: HLA-A*31:01
[2] = biological target: HLA-A*11:01
[3] = biological target: HLA-A*03:01
[4] = biological target: HLA-A*68:01
[5] = biological target: HLA-A*33:01
[6] = source organism: Dengue virus 4 Philippines/H241/1956
[7] = source organism: Dengue virus 1 Brazil/97-11/1997
[8] = source organism: Vaccinia virus WR
[9] = source organism: SARS coronavirus Tor2
[10] = source organism: Lassa virus Josiah
[11] = source organism: Dengue virus 3 Martinique/1243/1999
[12] = source organism: Dengue virus 3 Sri Lanka/1266/2000
[13] = source organism: Dengue virus 2 Jamaica/1409/1983
[14] = source organism: Mammarenavirus juninense
[15] = source organism: Mammarenavirus brazilense
[16] = source organism: Dengue virus 4 Dominica/814669/1981
[17] = source organism: Lymphocytic choriomeningitis virus (strain Armstrong)
[18] = source organism: Dengue virus 2 Peru/IQT2913/1996

Sequence | pKd [3, 8] | pKd [2, 8] | pKd [4, 8] | pKd [1, 8] | pKd [5, 8] | also measured
AAQRRGRIGR |  |  |  |  |  | pKd [1, 6]: 8.67
AIKVLRGFKK |  |  |  |  |  | pKd [2, 7]: 6.09
ALFMYYAKR | 7.91 | 7.18 | 6.03 | 9.35 | 7.49 | 
ASTISWMMK | 7.50 | 9.46 | 6.23 | 5.74 | ≤ 4.41 | 
ATSTRHPSK |  |  |  |  |  | pKd [3, 9]: 9.22; pKd [2, 9]: 8.01; pKd [4, 9]: 6.56; pKd [1, 9]: 6.21; pKd [5, 9]: ≤ 4.11
ATVVIGTSK |  |  |  |  |  | pKd [4, 9]: 7.00; pKd [1, 9]: 5.88; pKd [5, 9]: ≤ 4.11
CIFAFIDFSK | 7.74 | 8.04 | 7.34 | 6.87 | 7.19 | 
CSKHMDARY | 4.72 | 5.00 | 4.73 | ≤ 4.34 | ≤ 4.11 | 
CTSQILLMR |  |  |  |  |  | pKd [4, 7]: 7.78
DAKNDDWKKY | ≤ 4.15 | ≤ 4.16 | ≤ 4.15 | ≤ 4.15 | ≤ 4.15 | 
DIDILQTNSR | 7.20 | ≤ 4.56 | 6.08 | 6.15 | 6.50 | 
DQYKDLCHMH |  |  |  |  |  | pKd [3, 10]: ≤ 4.15; pKd [2, 10]: ≤ 4.16; pKd [4, 10]: ≤ 4.15; pKd [1, 10]: ≤ 4.15; pKd [5, 10]: ≤ 4.15
DSALTLHWFR |  |  |  |  |  | pKd [4, 6]: 7.88; pKd [5, 6]: 8.49
DTEDIVSDSK | 5.12 | 5.78 | 6.70 | 4.80 | 5.50 | 
DVDTSASEIK | 5.35 | 5.58 | 6.87 | ≤ 4.57 | 4.73 | 
DVISRRDQR |  |  |  |  |  | pKd [4, 7]: 7.18; pKd [5, 7]: 7.17
EATQLATLR |  |  |  |  |  | pKd [4, 11]: 7.80; pKd [5, 11]: 7.02
EITAEWLWR |  |  |  |  |  | pKd [4, 12]: 6.94; pKd [5, 12]: 7.94
ELGFNYPEY | ≤ 4.40 | ≤ 4.18 | 5.05 | ≤ 4.11 | ≤ 4.11 | 
ELYDTSPTKR | 6.12 | 4.98 | 8.82 | 5.73 | 6.85 | 
EMGANFRADR |  |  |  |  |  | pKd [1, 7]: ≤ 4.15
ENKAWLVHR |  |  |  |  |  | pKd ([5]; source organism: Dengue virus 2 16681-PDK53): 8.15
ESKAKQLCY | ≤ 4.11 | ≤ 4.11 | 4.80 | ≤ 4.11 | ≤ 4.11 | 

Sequence | pKd [3, 8] | pKd [2, 8] | pKd [4, 8] | pKd [1, 8] | pKd [5, 8] | also measured
FAEESYTYYY | ≤ 4.58 | 6.04 | 6.27 | ≤ 4.15 | ≤ 4.15 | 
FFLMVLLIPE |  |  |  |  |  | pKd [5, 7]: 6.68
FLAVFQSATK |  |  |  |  |  | pKd [3, 9]: 7.46; pKd [2, 9]: 5.79; pKd [4, 9]: 8.06; pKd [1, 9]: 4.97; pKd [5, 9]: ≤ 4.65
FLRSIAMLK | 8.69 | 6.67 | 6.97 | 6.82 | 6.21 | 
FTDPASIAAR |  |  |  |  |  | pKd [4, 13]: 7.59; pKd [5, 13]: 6.90
FVCRRTFVDR |  |  |  |  |  | pKd [1, 7]: ≤ 4.15; pKd [5, 7]: 7.19
FVNEKYCIIK | ≤ 4.31 | 6.65 | 6.56 | 5.21 | 5.41 | 
GFKNGSRHSH |  |  |  |  |  | pKd [3, 14]: 4.84; pKd [2, 14]: ≤ 4.37; pKd [4, 14]: 5.53; pKd [1, 14]: 6.05
GLLDSIKMIY | 7.34 | 5.47 | 6.09 | 5.81 | 5.54 | 
GMDYEEYKSK | 7.53 | 6.60 | ≤ 4.68 | 5.77 | ≤ 4.44 | 
GSLITCAKFK |  |  |  |  |  | pKd ([2]; source organism: Dengue virus 1 Nauru/West Pac/1974): 6.61
GTVMDIISRK |  |  |  |  |  | pKd [2, 11]: 7.32
GVLARWGTFK |  |  |  |  |  | pKd [3, 11]: 8.28; pKd [2, 11]: 7.13
GVTSSGAIYK | 6.74 | 7.34 | 7.09 | 5.87 | ≤ 5.00 | 
HLKCRLRMDK |  |  |  |  |  | pKd [3, 13]: 6.92
HYDQENPYR |  |  |  |  |  | pKd [5, 6]: 5.10
IFNEDTSYY | 5.22 | 5.16 | ≤ 4.70 | ≤ 4.11 | ≤ 4.11 | 
IFVSLVKKNK | 6.44 | 5.73 | 7.25 | 7.16 | 7.26 | 
IILARNEEGR | 5.02 | ≤ 4.61 | 5.94 | 7.15 | 6.46 | 
ILKINSVKY | 6.08 | 4.79 | 5.74 | 5.88 | 4.89 | 
ILKRWGTIK |  |  |  |  |  | pKd [3, 13]: 7.85
ILQLIRHGR | 5.84 | 6.14 | 7.12 | 9.01 | 8.58 | 
IMDKEQLLK | 7.99 | 7.66 | 5.95 | 5.95 | 5.20 | 

Sequence | pKd [3, 8] | pKd [2, 8] | pKd [4, 8] | pKd [1, 8] | pKd [5, 8] | also measured
ITGNNIILSK | 8.45 | 9.15 | 8.12 | 5.61 | 5.70 | 
IVSLCPTKK | 6.44 | 7.27 | 6.04 | 5.79 | 5.11 | 
KAGQNIRLSH |  |  |  |  |  | pKd [3, 15]: 5.77; pKd [2, 15]: 4.89; pKd [4, 15]: ≤ 4.15; pKd [1, 15]: 5.28; pKd [5, 15]: ≤ 4.15
KATLTEGVYR |  |  |  |  |  | pKd [1, 6]: 7.12
KIFSEVTPK |  |  |  |  |  | pKd ([3]; source organism: Homo sapiens): 8.00
KKNGAIKVLR |  |  |  |  |  | pKd [1, 7]: ≤ 4.15
KLDDVEKEK | 6.39 | 6.53 | ≤ 4.22 | 5.32 | ≤ 4.11 | 
KLVKSLVDK | 7.46 | 7.13 | ≤ 4.11 | ≤ 4.38 | ≤ 4.11 | 
KNKAWMVHR |  |  |  |  |  | pKd [1, 11]: 8.93
KQIANQFNK |  |  |  |  |  | pKd [3, 9]: 6.97; pKd [2, 9]: 6.86; pKd [4, 9]: 5.00; pKd [1, 9]: 7.62; pKd [5, 9]: ≤ 4.11
KSIIIPFIAY | 6.01 | 6.60 | 4.75 | 5.86 | ≤ 4.50 | 
KSINKVYGR | 6.43 | 8.62 | 7.81 | 8.98 | 5.47 | 
LFHGGEPIK | 6.14 | 6.12 | 5.29 | ≤ 4.11 | ≤ 4.11 | 
LFYTFAISY | ≤ 4.32 | ≤ 4.70 | ≤ 4.36 | ≤ 4.11 | ≤ 4.11 | 
LSEYETMVDY | 5.28 | 4.80 | ≤ 4.15 | ≤ 4.15 | ≤ 4.15 | 
LTVCYVLTGR |  |  |  |  |  | pKd [4, 13]: 8.19
LTYQNKVVR |  |  |  |  |  | pKd [4, 13]: 7.34; pKd [1, 13]: 7.95
LVKSYSLIR | 4.81 | 5.83 | 6.09 | 7.74 | 5.77 | 
MLFTSTNDK | 8.26 | 7.70 | 7.58 | 4.74 | ≤ 4.11 | 
MQGAVDINR |  |  |  |  |  | pKd [3, 9]: ≤ 4.64; pKd [2, 9]: 6.20; pKd [4, 9]: 6.46; pKd [1, 9]: 6.39; pKd [5, 9]: ≤ 4.43
MSTYGWNIVK |  |  |  |  |  | pKd [4, 11]: 8.21
MTLMKGASR |  |  |  |  |  | pKd [4, 16]: 7.28; pKd [1, 16]: 7.52; pKd [5, 16]: 7.94
MVGLLSNSPH |  |  |  |  |  | pKd [3, 14]: ≤ 4.52; pKd [2, 14]: ≤ 4.38; pKd [4, 14]: 6.18; pKd [1, 14]: 5.54; pKd [5, 14]: 5.37

Sequence | pKd [3, 8] | pKd [2, 8] | pKd [4, 8] | pKd [1, 8] | pKd [5, 8] | also measured
NACSANNSHH |  |  |  |  |  | pKd [3, 17]: ≤ 4.15; pKd [2, 17]: ≤ 4.16; pKd [4, 17]: 5.33; pKd [1, 17]: ≤ 4.15; pKd [5, 17]: ≤ 4.15
NKKPRLCTR |  |  |  |  |  | pKd [5, 11]: 5.41
NMVSDTIMKR | 5.38 | 6.92 | 7.04 | 6.51 | 6.08 | 
NSKYSYELY | ≤ 4.48 | 4.98 | 7.99 | ≤ 4.29 | ≤ 4.33 | 
NSSAVVDNK | 5.08 | 6.71 | 7.36 | ≤ 4.51 | ≤ 4.11 | 
NTNLIKCSDH |  |  |  |  |  | pKd [1, 15]: ≤ 4.43; pKd [5, 15]: ≤ 4.22
NVFKAMETFK | 7.57 | 7.86 | 8.88 | 7.20 | 6.63 | 
PLFDFVNEK | 5.71 | 6.38 | 6.65 | 5.91 | 5.26 | 
PLHILASNKK | 5.83 | 5.47 | ≤ 4.66 | 5.11 | ≤ 4.15 | 
PMVIENGILK | 4.99 | 6.67 | 6.53 | ≤ 4.62 | ≤ 4.15 | 
PVLKAMHDK | 6.19 | 6.06 | 5.60 | ≤ 4.17 | ≤ 4.11 | 
QMWTLMYFHR |  |  |  |  |  | pKd [1, 13]: 8.73; pKd [5, 13]: 7.45
QVYFESFVR |  |  |  |  |  | pKd [2, 17]: 7.26
RNKKPRLCTR |  |  |  |  |  | pKd [1, 11]: 7.03
RVPSHLAHR |  |  |  |  |  | pKd [1, 11]: 9.07
RVYADPMALK |  |  |  |  |  | pKd [3, 6]: 8.16; pKd [2, 6]: 7.04; pKd [4, 6]: 7.79
SLRETACLGK |  |  |  |  |  | pKd [3, 7]: 8.09
TIIGRRLQR |  |  |  |  |  | pKd [4, 6]: 6.21; pKd [5, 6]: 6.38
TMPLVMAWR |  |  |  |  |  | pKd [1, 6]: 8.07; pKd [5, 6]: 8.19
TVMAFHLTTR |  |  |  |  |  | pKd [2, 18]: 6.97; pKd [4, 18]: 7.91; pKd [1, 18]: 8.80; pKd [5, 18]: 8.09
VLAFITFLR |  |  |  |  |  | pKd [3, 6]: 6.57; pKd [4, 6]: 8.08; pKd [1, 6]: 8.36; pKd [5, 6]: 7.15
YFWQKKKQR |  |  |  |  |  | pKd [1, 7]: 5.65; pKd [5, 7]: 7.01
